Assay results reported in patent publication US20240254223A1 (NOVIMMUNE, published 2024).

T1: high affinity trimeric IL-2R (IL-2Rα, IL-2Rβ and IL-2Rγ) on HEK-Blue IL-2 cells (UniProt P01589 22-272; P14784 27-551; P31785 23-369)
T1 sequence (looked up) 1: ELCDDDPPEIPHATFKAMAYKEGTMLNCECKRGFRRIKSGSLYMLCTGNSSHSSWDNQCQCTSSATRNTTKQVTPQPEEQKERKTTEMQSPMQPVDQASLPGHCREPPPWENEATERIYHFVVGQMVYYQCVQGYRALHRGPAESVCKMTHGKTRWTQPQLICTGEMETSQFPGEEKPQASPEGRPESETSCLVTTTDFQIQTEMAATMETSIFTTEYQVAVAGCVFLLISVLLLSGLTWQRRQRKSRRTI
T1 sequence (looked up) 2: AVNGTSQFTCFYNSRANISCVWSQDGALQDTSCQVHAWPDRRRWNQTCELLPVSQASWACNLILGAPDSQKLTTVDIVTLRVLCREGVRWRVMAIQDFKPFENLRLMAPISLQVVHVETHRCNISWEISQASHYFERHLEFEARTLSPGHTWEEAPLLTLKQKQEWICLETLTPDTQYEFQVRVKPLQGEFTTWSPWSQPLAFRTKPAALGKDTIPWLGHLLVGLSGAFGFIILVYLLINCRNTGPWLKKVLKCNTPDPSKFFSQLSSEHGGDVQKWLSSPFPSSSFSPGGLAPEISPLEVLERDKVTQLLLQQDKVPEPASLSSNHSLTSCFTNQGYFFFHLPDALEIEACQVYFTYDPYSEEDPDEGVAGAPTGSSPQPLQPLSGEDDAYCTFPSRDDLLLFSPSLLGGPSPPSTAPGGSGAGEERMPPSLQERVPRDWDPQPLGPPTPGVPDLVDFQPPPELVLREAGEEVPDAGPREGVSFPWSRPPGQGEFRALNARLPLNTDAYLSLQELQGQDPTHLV
T1 sequence (looked up) 3: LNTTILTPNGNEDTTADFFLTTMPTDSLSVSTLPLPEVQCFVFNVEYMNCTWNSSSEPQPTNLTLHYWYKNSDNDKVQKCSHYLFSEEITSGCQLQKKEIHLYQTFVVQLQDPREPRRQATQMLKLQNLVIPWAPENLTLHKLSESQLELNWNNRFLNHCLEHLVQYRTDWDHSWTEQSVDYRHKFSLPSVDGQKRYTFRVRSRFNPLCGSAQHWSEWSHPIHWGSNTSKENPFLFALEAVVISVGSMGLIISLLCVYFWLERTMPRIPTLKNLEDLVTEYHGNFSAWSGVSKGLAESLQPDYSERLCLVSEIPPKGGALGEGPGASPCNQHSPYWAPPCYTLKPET

T2: low-moderate affinity dimeric IL-2R (IL-2Rβ and IL-2Rγ) on HEK-Blue CD122/CD132 cells (UniProt P14784 27-551; P31785 23-369, limits assumed)
T2 sequence (looked up) 1: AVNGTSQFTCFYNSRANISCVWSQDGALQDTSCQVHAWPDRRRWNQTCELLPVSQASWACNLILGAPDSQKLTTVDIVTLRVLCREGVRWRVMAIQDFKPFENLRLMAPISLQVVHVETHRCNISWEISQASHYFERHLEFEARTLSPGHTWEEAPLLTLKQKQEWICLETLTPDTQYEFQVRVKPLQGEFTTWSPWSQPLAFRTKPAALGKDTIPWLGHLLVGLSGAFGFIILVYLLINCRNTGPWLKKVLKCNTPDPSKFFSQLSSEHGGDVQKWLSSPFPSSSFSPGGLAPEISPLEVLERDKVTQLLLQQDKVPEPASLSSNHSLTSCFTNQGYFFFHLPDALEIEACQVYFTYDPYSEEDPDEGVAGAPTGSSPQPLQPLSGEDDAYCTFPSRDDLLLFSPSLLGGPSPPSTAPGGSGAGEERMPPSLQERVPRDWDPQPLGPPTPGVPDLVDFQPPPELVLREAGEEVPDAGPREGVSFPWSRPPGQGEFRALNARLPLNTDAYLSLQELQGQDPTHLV
T2 sequence (looked up) 2: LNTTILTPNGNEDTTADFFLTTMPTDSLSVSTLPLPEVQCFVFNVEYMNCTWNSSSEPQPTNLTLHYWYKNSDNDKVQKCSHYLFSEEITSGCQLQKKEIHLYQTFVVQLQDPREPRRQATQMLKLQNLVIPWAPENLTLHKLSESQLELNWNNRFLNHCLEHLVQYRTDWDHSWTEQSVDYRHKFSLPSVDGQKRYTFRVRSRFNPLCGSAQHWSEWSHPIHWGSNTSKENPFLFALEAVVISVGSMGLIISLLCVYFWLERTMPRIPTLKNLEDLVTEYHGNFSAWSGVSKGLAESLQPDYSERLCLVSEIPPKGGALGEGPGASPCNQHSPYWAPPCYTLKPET


Assays:
[1] = biological target: T1, high affinity trimeric IL-2R (IL-2Rα, …); assay: cell-based or functional assay
[2] = biological target: T2, low-moderate affinity dimeric IL-2R …; assay: cell-based or functional assay
[3] = biological target: T3, His-tagged human CD47 (human, UniProt Q08722 19-139, limits assumed); assay: BLI, His-CD47 on HIS1K sensor, after MMP-9 treatment
T3 construct: loaded on HIS1K biosensors at 2.5 µg/mL; also called target antigen; not shown: His tag
Procedure: The capacity of the masking domains to inhibit binding activity of the antibody was evaluated by Bio-Layer Interferometry (BLI). […] Binding experiments were performed to evaluate the masking efficiency and the binding recovery after cleavage of the masking domains. BLI was performed on an Octet RED96 system (Sartorius). His-tagged human CD47 was diluted at 2.5 μg/mL in Kinetic Buffer (KB) (Sartorius) and loaded on HIS1K biosensors (anti-His tag antibody biosensors, Sartorius) for 300 seconds. Loaded biosensors were dipped into antibodies diluted at 15 μg/mL in KB for 300 seconds to monitor association. Then, biosensors were transferred in KB for dissociation for 60 seconds. Binding profiles were then analyzed with ForteBio Data Analysis software.

[4] = biological target: T4, CD47 at the surface of Peak cells (human, UniProt Q08722 19-323); assay: flow cytometry, Peak cells, after MMP-9 treatment
T4 construct: whole, on cells; also called cell surface CD47
Procedure: Binding activity of antibody-cytokine/receptor fusions before and after cleavage was also evaluated by flow cytometry. Peak cells derived from HEK 293 which are human cells expressing CD47 were used to evaluate masking efficacy and binding recovery to CD47 by flow cytometry. Peak cells were diluted in cold FACS buffer (PBS, 2% BSA) to 1.2×10⁶ cells/mL. 3×10⁵ cells/well were added in a 96 well V-bottom plate. The plate was then centrifugated for 5 min at 1300 rpm, 4° C. Supernatants were removed and cells were washed twice using FACS buffer. A serial dilution of antibody-cytokine/receptor fusions previously digested with MMP-9 or not digested as described above was prepared in FACS buffer. An irrelevant antibody was included. Then, 150 μL of each diluted antibody were added in corresponding well and incubated for 30 min at 4° C. Cells were washed twice with FACS buffer and 100 μL of a mouse anti human Fc-PE conjugated secondary antibody were added and the plate was incubated for 20 min at 4° C. Cells were then washed twice with FACS buffer. Finally, 150 μL of SYTOX blue dead cell stain (ThermoFisher) diluted to 1/5000 in FACS buffer were added before detection by flow cytometry with Cytoflex (Beckman Coulter). Acquisition was performed with 10000 events for each well. Data were analyzed by FlowJo software.

| Binder | EC50 after cleavage IL-2, HEK Blue IL-2 αβγ reporter assay [1] | EC50 after cleavage IL-2, HEK Blue IL-2 βγ reporter assay [2] | Binding after cleavage (BLI) [3] | EC50 [4] |
| --- | --- | --- | --- | --- |
| Construct No 830 after cleavage by MMP-9 (antibody, MMP-9 digest of m27 (K33); the sample also holds the released IL-2Rα, IL-2 and IL-2Rβ; also called n830 after cleavage; not shown: remnant of CM1 and linker after MMP-9 cleavage) light: DIQMTQSPSSLSASVGDRVTITCRASQSISSYLNWYQQKPGKAPKLLIYAASSLQSGVPSRFSGSGSGTDFTLTISSLQPEDFATYYCQQFHKRSPQKFGQGTKVEIKRTVAAPSVFIFPPSDEQLKSGTASVVCLLNNFYPREAKVQWKVDNALQSGNSQESVTEQDSKDSTYSLSSTLTLSKADYEKHKVYACEVTHQGLSSPVTKSFNRGEC heavy: not shown | 0.01 nM | 0.01 nM | 1.7 nm |  |
| Construct No 770 after cleavage by MMP-9 (antibody, MMP-9 digest of m28; the sample also holds the released IL-2Rα, IL-2 C125S and IL-2Rβ; also called n770 after cleavage; not shown: remnant of CM1 and linker after MMP-9 cleavage) light: DIQMTQSPSSLSASVGDRVTITCNVDQVIANWLNWYQQKPGKAPKLLIYAASSLQSGVPSRFSGSGSGTDFTLTISSLQPEDFATYYCQQMHPRAPKQFGQGTKVEIKRTVAAPSVFIFPPSDEQLKSGTASVVCLLNNFYPREAKVQWKVDNALQSGNSQESVTEQDSKDSTYSLSSTLTLSKADYEKHKVYACEVTHQGLSSPVTKSFNRGEC heavy: not shown | 0.02 nM | 0.01 nM | 1.7 nm | 0.5 nM |
| Construct No 1030 after cleavage by MMP-9 (antibody, MMP-9 digest of m37; the sample also holds the released IL-2 Q126T and IL-2Rα; also called n1030 after cleavage; not shown: remnant of CM1 and linker after MMP-9 cleavage) light: DIQMTQSPSSLSASVGDRVTITCNVDQVIANWLNWYQQKPGKAPKLLIYAASSLQSGVPSRFSGSGSGTDFTLTISSLQPEDFATYYCQQMHPRAPKQFGQGTKVEIKRTVAAPSVFIFPPSDEQLKSGTASVVCLLNNFYPREAKVQWKVDNALQSGNSQESVTEQDSKDSTYSLSSTLTLSKADYEKHKVYACEVTHQGLSSPVTKSFNRGEC heavy: not shown | 0.23 nM |  | 1.3 nm | 0.8 nM |
| Construct No 790 after cleavage by MMP-9 (antibody, MMP-9 digest of m30; the sample also holds the released IL-2Rα, IL-2 D20T and IL-2Rβ; also called n790 after cleavage; not shown: remnant of CM1 and linker after MMP-9 cleavage) light: DIQMTQSPSSLSASVGDRVTITCNVDQVIANWLNWYQQKPGKAPKLLIYAASSLQSGVPSRFSGSGSGTDFTLTISSLQPEDFATYYCQQMHPRAPKQFGQGTKVEIKRTVAAPSVFIFPPSDEQLKSGTASVVCLLNNFYPREAKVQWKVDNALQSGNSQESVTEQDSKDSTYSLSSTLTLSKADYEKHKVYACEVTHQGLSSPVTKSFNRGEC heavy: not shown | 0.04 nM | 0.07 nM | 1.4 nm | 1.6 nM |
| Construct No 800 after cleavage by MMP-9 (antibody, MMP-9 digest of m31; the sample also holds the released IL-2Rα, IL-2 Q126T and IL-2Rβ; also called n800 after cleavage; not shown: remnant of CM1 and linker after MMP-9 cleavage) light: DIQMTQSPSSLSASVGDRVTITCNVDQVIANWLNWYQQKPGKAPKLLIYAASSLQSGVPSRFSGSGSGTDFTLTISSLQPEDFATYYCQQMHPRAPKQFGQGTKVEIKRTVAAPSVFIFPPSDEQLKSGTASVVCLLNNFYPREAKVQWKVDNALQSGNSQESVTEQDSKDSTYSLSSTLTLSKADYEKHKVYACEVTHQGLSSPVTKSFNRGEC heavy: not shown | 0.48 nM | 1.14 nM | 1.5 nm | 1.5 nM |
| Construct No 780 after cleavage by MMP-9 (antibody, MMP-9 digest of m29; the sample also holds the released IL-2Rα, IL-2 F42A and IL-2Rβ; also called n780 after cleavage; not shown: remnant of CM1 and linker after MMP-9 cleavage) light: DIQMTQSPSSLSASVGDRVTITCNVDQVIANWLNWYQQKPGKAPKLLIYAASSLQSGVPSRFSGSGSGTDFTLTISSLQPEDFATYYCQQMHPRAPKQFGQGTKVEIKRTVAAPSVFIFPPSDEQLKSGTASVVCLLNNFYPREAKVQWKVDNALQSGNSQESVTEQDSKDSTYSLSSTLTLSKADYEKHKVYACEVTHQGLSSPVTKSFNRGEC heavy: not shown | 0.02 nM | 0.01 nM | 1.7 nm | 1 nM |
